# Where a chain is given by its changes, count along the chain named. In names and notes the source's numbering stands.
# B1: H240-Kn192/H240-Hl204/L73-k0 (antibody, human IgG1, kappa)
# heavy 1: QDQLVQSGAEVKKPGASVKVSCKASGFNIKDTYIQWVRQAPGQGLEWMGRIDPLRKQTKYREKFEGRVTITADTSTNTAYMELSSLRSEDTAVYYCVRSGREFDYWGQGTLVTVSSASTKGPSVFPLAPSSKSTSGGTAALGCLVKDYFPEPVTVSWNSGALTSGVHTFPAVLQSSGLYSLSSVVTVPSSSLGTQTYICNVNHKPSNTKVDKKVEPKSCDKTHTCPPCPAPEYNWGPMVFLFPPKPKDTLMISRTPEVTCVVVDVSDEDPEVKFNWYVDGVEVHNAKTKPREKQYNATYRVVSVLTVLHQDWLNGKEYKCKVSNKDLPAPIEKTISKAKGQPREPQVCTLPPSRDELTKNQVSLWCLVKGFYPSDIAVEWESNGQPENNYKTTPPVLDSDGSFFLYSKLTVDKSRWQQGNVFSCSVMHEALHNHYTQKSLSLSP
# heavy 2: QDQLVQSGAEVKKPGASVKVSCKASGFNIKDTYIQWVRQAPGQGLEWMGRIDPLRKQTKYREKFEGRVTITADTSTNTAYMELSSLRSEDTAVYYCVRSGREFDYWGQGTLVTVSSASTKGPSVFPLAPSSKSTSGGTAALGCLVKDYFPEPVTVSWNSGALTSGVHTFPAVLQSSGLYSLSSVVTVPSSSLGTQTYICNVNHKPSNTKVDKKVEPKSCDKTHTCPPCPAPELLTGPSVFLFPPKPKDTLMISRTPEVTCVVVDVSHEEPEVKFNWYVDGVEVHNAKTKPREEQYNSTYRVVSVLTVLHQDWLNGKEYKCKVSNDALPKPEEETISKAKGQPREPQVYTLPPSRCELTKNQVSLSCAVKGFYPSDIAVEWESNGQPENNYKTTPPVLDSDGSFFLVSKLTVDKSRWQQGNVFSCSVMHEALHNHYTQKSLSLSP
# light: DIQMTQSPSSLSASVGDRVTITCRASQDIHKYIAWYQQKPGQAPRLLIQYTSTLQPGVPSRFSGSGSGTDYTFTISSLQPEDIATYYCLQYEQLRTFGGGTKVEIKRTVAAPSVFIFPPSDEQLKSGTASVVCLLNNFYPREAKVQWKVDNALQSGNSQESVTEQDSKDSTYSLSSTLTLSKADYEKHKVYACEVTHQGLSSPVTKSFNRGEC
# notes: Y235N/E294K in H240-Kn120; G236T/I332E in H240-Hl068
# B2: H240-Kn193/H240-Hl204/L73-k0 (antibody, human IgG1, kappa)
# heavy 1: B1 heavy 1 with K293R
# heavy 2: B1 heavy 2
# light: B1 light
# notes: Y235N/E294R in H240-Kn120; G236T/I332E in H240-Hl068
# B3: GpH7-TA7/GpH7-TA50/GpL16-k0 (antibody, human IgG1, kappa)
# heavy 1: QVQLVQSGAEVKKPGASVTVSCKASGYTFTDYEMHWIRQPPGEGLEWIGAIDPKTGDTAYSESFQDRVTLTADKSTSTAYMELSSLTSEDTAVYYCTRFYSYTYWGQGTLVTVSSASTKGPSVFPLAPSSKSTSGGTAALGCLVKDYFPEPVTVSWNSGALTSGVHTFPAVLQSSGLYSLSSVVTVPSSSLGTQTYICNVNHKPSNTKVDKKVEPKSCDKTHTCPPCPAPEYLWGPSVFLFPPKPKDTLMISRTPEVTCVVVDVSHEDPEVKFNWYVDGVEVHNAKTKPREEQYNATYRVVSVLTVLHQDWLNGKEYKCKVSNKALPAPIEKTISKAKGQPREPQVYTLPPSRKELTKNQVSLTCLVKGFYPSDIAVEWESNGQPENNYKTTPPVLDSDGSFFLYSKLTVDKSRWQQGNVFSCSVMHEALHNRYTQKSLSLSP
# heavy 2: B3 heavy 1 with Y232L, W234G, S237D, A296S, A328L, I330E, K332G, K354D, R433H, K437E
# light: DIVMTQSPLSLPVTPGEPASISCQASESLVHSNRNTYLHWYLQKPGQSPQLLIYKVSNRFSGVPDRFSGSGSGTDFTLKISRVEAEDVGVYYCSQNTHVPPTFGQGTKVEIERTVAAPSVFIFPPSDEQLKSGTASVVCLLNNFYPREAKVQWKVDNALQSGNSQESVTEQDSKDSTYSLSSTLTLSKADYEKHKVYACEVTHQGLSSPVTKSFNRGEC
# notes: Heterodimerized anti-glypican-3 IgG1 antibody; also called TA7/TA50
# B4: GpH7-B14/GpL16-k0 (antibody, human IgG1, kappa)
# heavy: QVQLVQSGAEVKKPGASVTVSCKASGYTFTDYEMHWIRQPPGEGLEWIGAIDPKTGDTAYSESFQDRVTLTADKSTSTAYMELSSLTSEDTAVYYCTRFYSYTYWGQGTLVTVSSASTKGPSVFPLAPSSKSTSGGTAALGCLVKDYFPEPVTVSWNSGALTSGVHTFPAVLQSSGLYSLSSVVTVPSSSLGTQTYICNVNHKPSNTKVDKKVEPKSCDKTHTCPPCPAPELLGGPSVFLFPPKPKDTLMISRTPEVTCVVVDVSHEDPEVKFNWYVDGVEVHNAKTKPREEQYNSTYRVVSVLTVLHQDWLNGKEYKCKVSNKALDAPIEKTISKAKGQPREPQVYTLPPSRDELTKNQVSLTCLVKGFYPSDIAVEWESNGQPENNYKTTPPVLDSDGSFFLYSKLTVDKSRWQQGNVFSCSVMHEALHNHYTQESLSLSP
# light: B3 light
# notes: P329D in both H chains
# B5: GpH7-A53/GpH7-B78/GpL16-k0 (antibody, human IgG1, kappa)
# heavy 1: B3 heavy 1 with Y232L, W234G, S237D, A296S
# heavy 2: B3 heavy 1 with Y232L, W234G, S237D, A296S, A328L, I330E, K354D, R433H, K437E
# light: B3 light
# notes: S239D in one H chain, S239D/A330L/I332E in the other
# B6: GpH7-TA7/GpH7-B78/GpL16-k0 (antibody, human IgG1, kappa)
# heavy 1: B3 heavy 1
# heavy 2: B3 heavy 1 with Y232L, W234G, S237D, A296S, A328L, I330E, K354D, R433H, K437E
# light: B3 light
# notes: L234Y/G236W/S298A in one H chain, S239D/A330L/I332E in the other
# B7: GpH7-TA40/GpH7-B78/GpL16-k0 (antibody, human IgG1, kappa)
# heavy 1: B3 heavy 1 with K332G
# heavy 2: B3 heavy 1 with Y232L, W234G, S237D, A296S, A328L, I330E, K354D, R433H, K437E
# light: B3 light
# notes: Heterodimerized anti-glypican-3 IgG1 antibody; K334G is in the same H chain as L234Y/G236W/S298A; also called TA40/B78
# B8: GpH7-B15/GpL16-k0 (antibody, human IgG1, kappa)
# heavy: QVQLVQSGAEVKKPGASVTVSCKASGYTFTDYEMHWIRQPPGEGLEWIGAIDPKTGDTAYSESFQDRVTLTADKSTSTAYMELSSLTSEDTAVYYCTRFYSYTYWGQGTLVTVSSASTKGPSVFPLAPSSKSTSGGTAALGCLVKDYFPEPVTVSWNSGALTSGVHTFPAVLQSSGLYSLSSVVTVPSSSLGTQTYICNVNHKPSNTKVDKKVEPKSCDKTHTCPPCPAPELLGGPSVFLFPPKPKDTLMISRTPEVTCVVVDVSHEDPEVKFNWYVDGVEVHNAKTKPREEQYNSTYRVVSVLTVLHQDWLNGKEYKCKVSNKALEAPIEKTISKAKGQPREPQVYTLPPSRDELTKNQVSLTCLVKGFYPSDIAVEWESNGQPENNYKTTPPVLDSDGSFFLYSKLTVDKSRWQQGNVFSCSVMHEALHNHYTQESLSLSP
# light: B3 light
# notes: P329E in both H chains
# What was measured:
# [1] = molecular target: T1, FcγRIa (human, UniProt P12314 16-292); experiment: SPR (Biacore4000), kinetic analysis
# T1 construct: extracellular domain; also called FcgRIa; FcgRI; not shown: His tag attached to the C terminus
# Description: The variants described above were assessed for their binding to FcγR according to the method described in Reference Example 8.
# Analysis of interaction between obj ective antibody and the FcγR was carried out using Biacore T100 (GE Healthcare), Biacore T200, Biacore A100, and Biacore 4000. HBS-EP+ (GE Healthcare) was used as the running buffer, and the measurement temperature was set to 25° C. Chips produced by immobilizing the antigen peptide by the amine coupling method to a Series S sensor Chip CM5 (GE Healthcare), chips produced by allowing preliminarily biotinylated antigen peptides to interact with and immobilize onto a Series S Sensor Chip SA (certified) (GE Healthcare), chips produced by immobilizing Protein L (ACTIGEN, BioVision) to Series S Sencor Chip CM5 (GE Healthcare), or chips produced by immobilizing Protein A/G (Thermo Scientific) to Series S Sencor Chip CM5 (GE Healthcare) were used. Antibodies of interest were captured onto these chips, and allowed to interact to each FcγR diluted with running buffer. To regenerate and repeatedly use the chip, the antibodies captured onto the chip were washed off by reacting 10 mM glycine-HCl, pH 1.5.
# [2] = molecular target: T2, FcγRIIIa F (human, UniProt P08637 17-208); experiment: SPR (Biacore), KD
# T2 construct: extracellular domain; also called FcgRIIIa F; FcgRIIIaF; not shown: His tag attached to the C terminus
# [3] = molecular target: T3, FcγRIIIa V (human, UniProt P08637 17-208); experiment: SPR (Biacore), KD
# T3 construct: extracellular domain; also called FcgRIIIa V; FcgRIIIaV; not shown: His tag attached to the C terminus
# [4] = molecular target: T4, FcγRIIIa (human, UniProt P08637 17-208); experiment: SPR (Biacore T100); antibody captured on an antigen peptide chip, FcγRIIIa as analyte; 1:1 Langmuir kinetic fit
# T4 construct: extracellular domain; The protein is soluble, His-tagged, and was expressed in FreeStyle293 cells; also called FcgRIIIa; CD16A; not shown: His tag attached to the C terminus
# Description: (§1) Then, K334G was also assessed in the same manner. GpH7-TA40 (SEQ ID NO: 47) resulting from the introduction of K334G into GpH7-TA7 was constructed, and expressed and prepared in combination with GpH7-B78 according to the method described in Reference Example 1. Furthermore, GpH7-TA50 (SEQ ID NO: 48) resulting from the introduction of K334G into GpH7-B78 was constructed, and expressed and prepared in combination with GpH7-TA7 according to the method described in Reference Example 1. To assess the effect of combinations with K334G, the prepared antibodies were compared for the FcγRIIIa binding according to the method described in Reference Example 2 (Table 18).
# (§2) Analysis of interaction between objective antibody and the FcγR was carried out using Biacore T100 (GE Healthcare). HBS-EP+ (GE Healthcare) was used as the running buffer, and the measurement temperature was set to 25° C. Chips produced by immobilizing the antigen peptide by the amine coupling method to a Series S Sencor Chip CM5 (GE Healthcare), or alternatively, chips produced by allowing preliminarily biotinylated antigen peptides to interact with and immobilize onto a Series S Sensor Chip SA (certified) (GE Healthcare) were used. Antibodies of interest were captured onto an antigen peptide-immobilized chip, and allowed to interact to each FcγR diluted with running buffer. To regenerate and repeatedly use the chip, the antibodies captured on the chip were washed off by reacting 10 mM glycine-HCl, pH 1.5.
# T4 sequence (P08637 17-208): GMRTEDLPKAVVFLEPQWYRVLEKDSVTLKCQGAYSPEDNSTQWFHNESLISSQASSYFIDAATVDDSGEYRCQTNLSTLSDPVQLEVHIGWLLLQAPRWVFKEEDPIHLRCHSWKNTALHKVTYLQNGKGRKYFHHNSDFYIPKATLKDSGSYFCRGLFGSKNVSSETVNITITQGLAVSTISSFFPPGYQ
# [5] = molecular target: T4, FcγRIIIa; experiment: SPR (Biacore); KD of GpH7-TA7/GpH7-B78/GpL16-k0 for FcγRIIIa divided by the KD of this antibody
# Description: as §1
# as §2, with “To regenerate and repeatedly use the chip, the antibodies captured on the chip were washed off by reacting 10 mM glycine-HCl, pH 1.5.” left out
# [6] = molecular target: T1, FcγRIa; experiment: SPR (Biacore), relative binding
# From the text: The constructed expression vectors were each combined with GpH7-A5 and GpL16-k0 to express heterodimerized antibodies, or they were combined with GpL16-k0 alone but not with other H chains to express homodimerized antibodies. These antibodies were expressed and purified according to the method described in Reference Example 1. The resulting purified antibodies are the following: the heterodimerized antibodies GpH7-A5/GpH7-B12/GpL16-k0, GpH7-A5/GpH7-B13/GpL16-k0, GpH7-A5/GpH7-B14/GpL16-k0, and GpH7-A5/GpH7-B15/GpL16-k0; and homodimerized antibodies GpH7-B12/GpL16-k0, GpH7-B13/GpL16-k0, GpH7-B14/GpL16-k0, and GpH7-B15/GpL16-k0. The prepared antibodies were used to assess the binding activity to each FcγR by the method described in Reference Example 2.
# as §2
# [7] = molecular target: T5, FcγRIIIa (human, UniProt P08637 17-208); experiment: SPR (Biacore), KD
# T5 construct: extracellular domain; not shown: His tag attached to the C terminus
# T5 sequence (P08637 17-208): as above
# T1 sequence (P12314 16-292): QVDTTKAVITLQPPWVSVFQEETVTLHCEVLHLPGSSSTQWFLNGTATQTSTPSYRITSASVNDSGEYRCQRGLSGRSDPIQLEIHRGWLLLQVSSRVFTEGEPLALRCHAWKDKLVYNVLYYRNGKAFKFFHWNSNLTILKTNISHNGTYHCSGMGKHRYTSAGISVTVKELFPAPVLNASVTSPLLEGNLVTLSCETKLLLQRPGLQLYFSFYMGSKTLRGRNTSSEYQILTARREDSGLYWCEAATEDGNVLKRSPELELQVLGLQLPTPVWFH
# T2 sequence (P08637 17-208): as the sequence (P08637 17-208) above
# T3 sequence (P08637 17-208 F176V limits assumed): as the sequence (P08637 17-208) above, with F160V counted along it
binder,measurement,setting,value
B1,koff,[1],< 5e-05 s⁻¹
same,fold enhancement of binding against the variant before introduction of I332E and Y235N,[2],2 fold
same,fold enhancement of binding against the variant before introduction of I332E and Y235N,[3],8 fold
B2,koff,[1],< 5e-05 s⁻¹
same,fold enhancement of binding against the variant before introduction of I332E and Y235N,[2],2 fold
same,fold enhancement of binding against the variant before introduction of I332E and Y235N,[3],8 fold
B3,Kd,[4],3.4 nM
same,KD ratio,[5],1.2
B4,binding activity relative to GpH7-A5/GpH7-B3/GpL16-k0,[6],≤ 0.2 fraction of GpH7-A5/GpH7-B3/GpL16-k0
B5,fold decrease of binding activity against GpH7-A57/GpH7-B78/GpL16-k0,[7],1.8 fold
B6,fold enhancement of binding against GpH7-A5/GpH7-B78/GpL16-k0,[7],≥ 10 fold
B7,Kd,[4],7.5 nM
same,KD ratio,[5],0.5
B8,binding activity relative to GpH7-A5/GpH7-B3/GpL16-k0,[6],≤ 0.2 fraction of GpH7-A5/GpH7-B3/GpL16-k0
